# B1: Double-strand break repair protein MRE11 (Saccharomyces cerevisiae), P32829 (parent)
# chain: MDYPDPDTIRILITTDNHVGYNENDPITGDDSWKTFHEVMMLAKNNNVDMVVQSGDLFHVNKPSKKSLYQVLKTLRLCCMGDKPCELELLSDPSQVFHYDEFTNVNYEDPNFNISIPVFGISGNHDDASGDSLLCPMDILHATGLINHFGKVIESDKIKVVPLLFQKGSTKLALYGLAAVRDERLFRTFKDGGVTFEVPTMREGEWFNLMCVHQNHTGHTNTAFLPEQFLPDFLDMVIWGHEHECIPNLVHNPIKNFDVLQPGSSVATSLCEAEAQPKYVFILDIKYGEAPKMTPIPLETIRTFKMKSISLQDVPHLRPHDKDATSKYLIEQVEEMIRDANEETKQKLADDGEGDMVAELPKPLIRLRVDYSAPSNTQSPIDYQVENPRRFSNRFVGRVANGNNVVQFYKKRSPVTRSKKSGINGTSISDRDVEKLFSESGGELEVQTLVNDLLNKMQLSLLPEVGLNEAVKKFVDKDEKTALKEFISHEISNEVGILSTNEEFLRTDDAEEMKALIKQVKRANSVRPTPPKENDETNFAFNGNGLDSFRSSNREVRTGSPDITQSHVDNESRITHISQAESSKPTSKPKRVRTATKKKIPAFSDSTVISDAENELGDNNDAQDDVDIDENDIIMVSTDEEDASYGLLNGRKTKTKTRPAASTKTASRRGKGRASRTPKTDILGSLLAKKRK
# partner: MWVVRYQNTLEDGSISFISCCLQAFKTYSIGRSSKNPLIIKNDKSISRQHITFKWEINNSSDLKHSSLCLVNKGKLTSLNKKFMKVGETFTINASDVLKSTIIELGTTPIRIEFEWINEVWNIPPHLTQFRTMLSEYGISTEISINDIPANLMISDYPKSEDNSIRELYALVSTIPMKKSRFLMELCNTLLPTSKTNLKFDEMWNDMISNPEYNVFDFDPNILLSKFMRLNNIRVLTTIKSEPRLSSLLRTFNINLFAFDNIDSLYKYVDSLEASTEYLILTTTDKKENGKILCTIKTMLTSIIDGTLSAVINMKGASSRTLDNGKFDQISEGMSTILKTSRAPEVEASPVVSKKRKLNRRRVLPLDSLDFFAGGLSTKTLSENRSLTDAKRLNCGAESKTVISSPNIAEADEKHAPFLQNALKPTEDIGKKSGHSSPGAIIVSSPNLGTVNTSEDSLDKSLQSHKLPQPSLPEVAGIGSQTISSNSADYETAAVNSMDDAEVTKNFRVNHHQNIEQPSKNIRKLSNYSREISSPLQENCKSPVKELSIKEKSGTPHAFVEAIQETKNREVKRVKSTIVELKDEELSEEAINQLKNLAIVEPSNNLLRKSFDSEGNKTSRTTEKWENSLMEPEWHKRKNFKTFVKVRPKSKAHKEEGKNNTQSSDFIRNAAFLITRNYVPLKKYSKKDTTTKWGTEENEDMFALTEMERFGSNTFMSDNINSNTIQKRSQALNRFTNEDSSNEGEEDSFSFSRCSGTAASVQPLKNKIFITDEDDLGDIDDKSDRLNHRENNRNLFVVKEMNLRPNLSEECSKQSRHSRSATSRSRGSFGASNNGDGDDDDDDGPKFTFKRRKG
# Variants of: B1
# Conditions: with xrs2_yeast XRS2, P33301
row,Variant,effect of a mutation on the interaction
1,N113S,disrupting interaction strength
2,D109G,disrupting interaction strength
3,R76A,disrupting interaction strength
4,R76K,disrupting interaction strength

# From IntAct's records for PubMed 22705791
